Experimental findings from PMC8237704 are described below.

In the test the target is GluN1 NMDA receptor subunit, isoform GluN1-2a, with a fluorescent protein on the C-terminus (GluN1-GFP; GluN1-mCherry). Nature of the test: FRET or BRET. On the technique in general: BRET reads energy transfer from a luciferase to a nearby fluorophore.

On to “GluN1 NMDA receptor subunit, isoform GluN1-2a, with a fluorescent protein on the C-terminus (GluN1-GFP; GluN1-mCherry)”, for which the FRET efficiency worked out at 5.8%.
